Experimental data taken from PMC7264223, “Tetrameric architecture of an active phenol-bound form of the AAA^+ transcriptional regulator DmpR” (Nature Communications, 2020).
“And” between values parts separate entries of the source, which are not always exact repeats. Identical values can stand only once.

B1: DmpR^WT, full-length DmpR (di-methyl phenol regulator) bearing an N-terminal 6 × His tag (natural protein, Pseudomonas putida KCTC 1452, UniProt Q7WSM9 1-563, looked up)
chain: MPIKYKPEIQHSDFKDLTNLIHFQSTEGKIWLGEQRMLLLQVSAMASFRREMVNTLGIERAKGFFLRQGYQSGLKDAELARKLRPNASEYDMFLAGPQLHSLKGLVKVRPTEVDIDKECGRFYAEMEWIDSFEVEICQTDLGQMQDPVCWTLLGYACAYSSAFMGREIIFKEVSCRGCGGDKCRVIGKPAEEWDDVASFKQYFKNDPIIEELYELQSQLVSLRTNLDKQEGQYYGIGQTPAYQTVRNMMDKAAQGKVSVLLLGETGVGKEVIARSVHLRSKRAAEPFVAVNCAAIPPDLIESELFGVEKGAFTGATQSRMGRFERADKGTIFLDEVIELSPRAQASLLRVLQEGELERVGDNRTRKIDVRVIAATHEDLAEAVKAGRFRADLYYRLNVFPVAIPALRERREDIPLLVEHFLQRFHQEYGKRTLGLSDKALEACLHYSWPGNIRELENVIERGIILTDPNESISVQALFPRAPEEPQTASERVSSDGVLIQPGNGQGSWISQLLSSGLSLDEIEESLMREAMQQANQNVSGAARLLGLSRPALAYRLKKIGIEG
notes: DmpR (CapR) of Pseudomonas putida KCTC 1452, codons 1-563 (wild type), GenBank AAP46187.1; 66 kDa with tag; Mixture of dimers and tetramers without phenol, predominantly a tetramer with phenol; Vector pProEX HTa; also called CapR; wild type DmpR; source: E. coli BL21-CodonPlus (DE3)-RIL, purified (His-Trap HP, Superdex 200); not shown: His6, N-terminal, kept

Columns and labels:
DmpR [1] = molecular target: DmpR (Pseudomonas putida, UniProt Q7WSM9, C119S/C137S); assay: ([…] Å) and isothermal titration calorimetry; assay type: binding
DmpR [2] = molecular target: T1, DmpR (Pseudomonas putida, UniProt Q7WSM9); assay: activation of ATPase activity (radiolabelled ATP, TLC); phenol-induced tetramerization (BN-PAGE, SEC-MALS, single-molecule photobleaching); assay type: biochemical
T1 construct: DmpR^WT, full-length (1–563), N-terminal 6 × His tag
T1 sequence (Q7WSM9 1-563): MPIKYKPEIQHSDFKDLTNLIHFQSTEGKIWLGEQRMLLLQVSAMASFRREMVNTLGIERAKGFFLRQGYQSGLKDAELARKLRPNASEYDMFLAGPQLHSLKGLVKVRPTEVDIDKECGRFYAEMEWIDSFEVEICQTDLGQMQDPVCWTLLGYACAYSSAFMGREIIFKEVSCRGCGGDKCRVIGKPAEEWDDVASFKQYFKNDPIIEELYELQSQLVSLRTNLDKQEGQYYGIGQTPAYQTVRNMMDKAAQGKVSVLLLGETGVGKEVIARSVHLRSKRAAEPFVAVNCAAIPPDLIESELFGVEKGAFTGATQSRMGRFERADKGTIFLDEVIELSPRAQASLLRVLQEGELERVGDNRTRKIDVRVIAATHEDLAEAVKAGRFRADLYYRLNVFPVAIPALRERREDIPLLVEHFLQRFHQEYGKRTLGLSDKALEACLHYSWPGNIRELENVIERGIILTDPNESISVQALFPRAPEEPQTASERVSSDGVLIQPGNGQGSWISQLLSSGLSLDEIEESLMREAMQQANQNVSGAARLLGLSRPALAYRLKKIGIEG

[3] = molecular target: DmpR^ΔD, truncated DmpR derivative (aa 18–481) with C119S/C137S (Pseudomonas putida KCTC 1452); assay: not stated; DmpR^ΔD in the presence of phenol (Supplementary Fig. 2a, b)
[4] = molecular target: DmpR^ΔD, truncated DmpR derivative (aa 18–481) with C119S/C137S (Pseudomonas putida KCTC 1452); assay: crystal structure; DmpR^ΔD crystallised with 10 mM phenol and 3 mM AMP-PNP, sitting drop, 4 °C; 3.4 Å
[5] = molecular target: DmpR^ΔS, truncated DmpR lacking only the sensory domain (residues 205–563) (Pseudomonas putida KCTC 1452); assay: native gel or EMSA; blue native PAGE of truncated DmpR proteins after incubation with ATP or ATPγS, without phenol
[6] = molecular target: DmpR^ΔS, truncated DmpR lacking only the sensory domain (residues 205–563) (Pseudomonas putida KCTC 1452); assay: SEC-MALS; SEC combined with MALS of DmpR^ΔS
[7] = molecular target: eGFP-DmpR^WT, fusion of eGFP and N-terminally 6 × His-tagged DmpR^WT (Pseudomonas putida KCTC 1452); assay: single-molecule fluorescence imaging (TIRF); biotinylated σ^54_((1–119))-CPD immobilised through biotin-streptavidin; eGFP-DmpR^WT added with phenol and ATPγS; bleaching steps of bound eGFP-DmpR counted
[8] = molecular target: eGFP-DmpR^WT, fusion of eGFP and N-terminally 6 × His-tagged DmpR^WT (Pseudomonas putida KCTC 1452); assay: single-molecule photobleaching (TIRF); eGFP-DmpR^WT (100 pM) held by biotinylated anti-GFP antibody on streptavidin surface, PBS, without phenol; steps of eGFP bleaching counted
[9] = molecular target: eGFP-DmpR^WT, fusion of eGFP and N-terminally 6 × His-tagged DmpR^WT (Pseudomonas putida KCTC 1452); assay: single-molecule fluorescence imaging (TIRF); eGFP-DmpR^WT (100 pM, with 1 mM MgCl2, 3 mM phenol, 1 mM ATPγS) held by biotinylated anti-GFP antibody; 1 nM Cy5-labelled σ^54_((1–119))-CPD added; 50 mM HEPES-NaOH pH 7.5, 300 mM NaCl, 5 mM MgCl2
[10] = molecular target: eGFP-DmpR^WT, fusion of eGFP and N-terminally 6 × His-tagged DmpR^WT (Pseudomonas putida KCTC 1452); assay: single-molecule photobleaching (TIRF); eGFP-DmpR^WT (100 pM) held by biotinylated anti-GFP antibody on streptavidin surface, PBS, with 3 mM phenol; addition of 1 mM ATP changed nothing
[11] = molecular target: the molecule itself; assay: native gel or EMSA; blue native PAGE (4–16% gradient gel), 20 µM DmpR, 20 min at 25 °C, without phenol
[12] = molecular target: B1; assay: ITC; MicroCal Auto-iTC200, 25 °C; DmpR in the cell, σ^54_((1–119))-CPD (400 µM) as injectant; with phenol and ATPγS; details: both partners purified

Oc1ccccc1 [phenol]
Kd (DmpR [1]): ~12 µM
activation of ATPase activity (radiolabelled ATP, TLC); phenol-induced tetrameri (DmpR [2]): The DmpR^WT and DmpR^ΔD proteins exhibited ATP hydrolysis in the presence of phenol

DmpR^ΔD, truncated DmpR derivative (aa 18–481) with C119S/C137S (domain or fragment)
stoichiometry N [3]: 4
stoichiometry N [4]: 4

DmpR^ΔS, truncated DmpR lacking only the sensory domain (residues 205–563) (domain or fragment)
stoichiometry N [5]: 4
stoichiometry N [6]: 4

eGFP-DmpR^WT, fusion of eGFP and N-terminally 6 × His-tagged DmpR^WT (natural protein)
stoichiometry N [7]: 4
percent of molecules with four-step photobleaching (tetramers) [8]: 19%
percent of molecules with three-step photobleaching (trimers) [8]: 14%
percent of molecules with two-step photobleaching (dimers) [8]: 32%
stoichiometry N [9]: 4
percent of molecules with four-step photobleaching (tetramers) [10]: 34%
percent of molecules with two-step photobleaching (dimers) [10]: 17%

B1
stoichiometry N [11]: 2 and 4

B2: σ^54_((1–119))-CPD, N-terminal residues of σ^54 (aa 1–119) fused to a C-terminal cysteine protease domain (CPD) (domain or fragment, UniProt P0A171 1-119, looked up)
chain: MKPSLVLKMGQQLTMTPQLQQAIRLLQLSTLDLQQEIQEALESNPMLERQEDGEDFDNSDPMADNAENKPAAEVQDNSFQESTVSADNLEDGEWSERIPNELPVDTAWEDIYQTSASSL
notes: also called N-terminal peptide of σ^54; σ^54 peptide; source: E. coli BL21-CodonPlus (DE3)-RIL, purified (His-Trap HP, Superdex 200); not shown: CPD (cysteine protease domain), C-terminal, kept
Kd [12]: ~4 µM
stoichiometry N [12]: 0.86 ± 0.022
